Tests used:
[1] = target: muc-1 on muc-1 positive human cancer cells (DU145; T47D) (human) (UniProt P15941); experiment: flow cytometry, dye labelled IgG 0.2 to 200 nM on DU145 cells
[2] = target: muc-1 on muc-1 positive human cancer cells (DU145; T47D) (human) (UniProt P15941); experiment: flow cytometry, dye labelled IgG on muc-1 positive T47D (printed T74D) cells
[3] = target: muc-1 on muc-1 positive human cancer cells (DU145; T47D) (human) (UniProt P15941); experiment: flow cytometry, dye labelled IgG on DU145 cells, higher dose range

UniProt P15941, sequence (P15941 24-1255, stated change not applied): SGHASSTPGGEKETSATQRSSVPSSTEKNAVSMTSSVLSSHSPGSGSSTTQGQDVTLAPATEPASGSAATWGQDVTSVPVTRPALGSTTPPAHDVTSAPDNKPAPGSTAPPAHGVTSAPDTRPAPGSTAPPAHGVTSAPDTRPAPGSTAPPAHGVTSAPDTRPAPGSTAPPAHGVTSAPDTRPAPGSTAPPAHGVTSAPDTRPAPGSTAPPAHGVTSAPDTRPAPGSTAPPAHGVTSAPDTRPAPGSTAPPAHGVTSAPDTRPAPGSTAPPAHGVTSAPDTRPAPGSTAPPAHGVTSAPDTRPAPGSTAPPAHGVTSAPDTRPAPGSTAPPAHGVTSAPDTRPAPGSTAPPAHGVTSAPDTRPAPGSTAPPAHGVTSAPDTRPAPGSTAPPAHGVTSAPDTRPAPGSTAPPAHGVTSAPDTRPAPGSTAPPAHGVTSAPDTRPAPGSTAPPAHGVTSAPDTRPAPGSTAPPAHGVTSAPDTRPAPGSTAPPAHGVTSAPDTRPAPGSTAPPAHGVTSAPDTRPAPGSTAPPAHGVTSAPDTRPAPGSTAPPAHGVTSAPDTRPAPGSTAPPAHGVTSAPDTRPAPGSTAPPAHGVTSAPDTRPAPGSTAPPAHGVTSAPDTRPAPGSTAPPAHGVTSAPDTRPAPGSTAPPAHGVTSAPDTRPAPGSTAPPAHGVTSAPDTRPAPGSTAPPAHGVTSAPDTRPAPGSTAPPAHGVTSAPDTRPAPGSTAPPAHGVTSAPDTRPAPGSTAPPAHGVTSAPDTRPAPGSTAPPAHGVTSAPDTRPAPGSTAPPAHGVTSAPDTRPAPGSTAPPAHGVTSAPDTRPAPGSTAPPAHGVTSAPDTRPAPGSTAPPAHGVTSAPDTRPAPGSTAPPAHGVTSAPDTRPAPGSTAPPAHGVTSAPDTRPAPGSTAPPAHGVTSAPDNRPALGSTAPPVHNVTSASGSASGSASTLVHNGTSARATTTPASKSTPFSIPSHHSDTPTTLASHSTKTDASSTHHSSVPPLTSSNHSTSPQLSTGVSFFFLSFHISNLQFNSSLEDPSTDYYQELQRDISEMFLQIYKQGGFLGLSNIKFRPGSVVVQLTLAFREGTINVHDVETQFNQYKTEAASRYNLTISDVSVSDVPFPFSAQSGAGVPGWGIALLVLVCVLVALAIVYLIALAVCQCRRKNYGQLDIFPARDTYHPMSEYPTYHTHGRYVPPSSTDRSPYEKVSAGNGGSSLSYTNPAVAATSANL

Row | IgG concentration at which binding plateaus [2] [nM] | Substance | further results
1 | – | wild type CTM01 IgG labelled with AlexaFluor 488-C5-maleimide under identical conditions (0.7 dyes per IgG) (antibody) | fold lower degree of binding than the S171C mutant labelled via kappa cys171 [1]: 6 fold
2 | 20 | wild type hCTM01 IgG reduced with 20 mM 2-ME and labelled with AlexaFluor488-C5-maleimide (approximately 4 dyes per IgG; 3.6 dyes per IgG in FIG. 4) (antibody) | –
3 | > 100 | hCTM01 S171C mutant IgG reduced with 5 mM 2-ME and labelled with AlexaFluor488-C5-maleimide (approximately 4 dyes per IgG; 3.9 dyes per IgG in FIG. 4) (antibody) | –
4 | – | wild type CTM01 IgG labelled via lysine modification with AlexaFluor488-NHS ester (2 dyes per IgG) (antibody) | percent lower binding than kappa cys171-dye labelled S171C mutant IgG [3]: 8%
